This is an account of results in patent US6667052B2, “Transdermal delivery system” (priority 1997, dated 2003).

Entries after “also recorded” stand apart in the source; their conditions may differ. Where a name gives a salt, the structure may show the parent alone. Read-outs that look alike come from different tables or passages of the source.

The test system of one data set is GSH. The note with it: iodine 0.5% to 10% applied; preliminary experiments, FIG. 10.
For data set [1], the system named is non-fasted rats (Sprague-Dawley strain). Description: In-vivo evaluation of dermally-applied insulin after diethyl maleate (DEM) pretreatment: plasma glucose. Details: species or system rat. As to conditions: FIG. 3. As to the method:
Two non-fasted locally-grown rats (Sprague-Dawley strain) were anesthetized (15 mg/ml pentobarbital sodium, 0.2-0.3 ml i.p.). The rats were placed on their back, the abdominal hair was trimmed off, and then the skin was washed gently with distilled water. The animals were maintained with 0.1 ml pentobarbital 15 mg/ml solution to keep them continuously asleep during the experiment. Diethyl maleate, a glutathion depleting agent, was injected intraperitoneally (0.5 ml, 20% v/v ethanolic solution) to one rat only.
Blood sampling and glucose measurement were performed as described in example 5.

For data set [2] the following is noted: control rats not pretreated with iodine, dermal insulin.
The subject of data set [3] is rats (Sprague-Dawley strain). Description: In-vivo evaluation of dermally-applied insulin with oxidant pretreatment: plasma glucose monitoring. Details: species or system rat.
For data set [4] the following is noted: iodine-pretreated skin exposed for 2 hours to insulin; FIG. 9B. As to the method: The method was performed according to Wroblewski et al (see above) using a reverse phase column (Vydac C18, 250×4.6 mm, 5? m), and a diodearray detector.
For data set [5] the following is noted: for applied insulin remained in the cylinder: after 3 hours. From the text: Careful attention was paid that the liquid has covered the entire skin area in the cylinder and that no leaking has occurred.

`II` [iodine]: the “iodine concentration at which minimum level of GSH is obtained” value in the data set on GSH was “about 2%”.

Regarding `CCOC(=O)/C=C\C(=O)OCC` [DEM, Diethyl maleate], the plasma glucose result in data set [1] (DEM 0.5 ml 20% v/v ethanolic solution i.p., then 50 IU Humulin R dermally) is listed as “abrupt reduction”.

As to “insulin: human insulin, applied as Humulin R solution for injection, 0.5 ml equivalent to 50 IU”, the plasma insulin levels entry in data set [2] was “No elevation”. The plasma glucose result in data set [1] (rat without DEM, 50 IU Humulin R dermally) is reported as “decreased relatively slower”. The plasma/blood glucose levels entry in data set [3] (dermal insulin 50 IU, control rats without oxidant pretreatment) is “no reduction; also recorded: not influenced; also recorded: almost the same levels with no change”. Further, the “insulin form found in skin extract (HPLC)” value in data set [4] is on record as “parent insulin was accumulated quantitatively”. The “applied insulin remained in the cylinder” value in data set [5] (both control and iodine-treated groups) is reported as “about 77%”; in data set [5] (control group (first value)) it was 76.0±6.6%; in data set [5] (iodine-treated group), 77.3±7.8%. The “insulin quantities in the open wells” value in data set [5] (initial in vivo studies, insulin-containing wells on rat abdominal skin, no oxidant) was “significantly decreased”.

Turning to `OO` [hydrogen peroxide], in data set [3] (Example 6: 3 hours oxidant pretreatment (5% silver protein, 0.01% potassium permangnate, 9% hydrogen peroxide or povidone-iodine), then 50 IU Humulin R, FIG. 2), the plasma glucose levels result is on record as “No glucose reduction”.
